# Laboratory results published in patent US20230074134A1, “METHOD FOR PREPARING SOY LEGHEMOGLOBIN USING ESCHERICHIA COLI” (iNtRON Biotechnology, Inc., priority 2020, published 2023).
# B1: soy leghemoglobin (protein)
# chain: MGAFTEKQEALVSSSFEAFKANIPQYSVVFYTSILEKAPAAKDLFSFLSNGVDPSNPKLTGHAEKLFGLVRDSAGQLKANGTVVADAALGSIHAQKAITDPQFVVVKEALLKTIKEAVGDKWSDELSSAWEVAYDELAAAIKKAF
# modifications: heme cofactor; Soy leghmoglobin
# Test system: iron-deficiency-anemia-induced animals
# Assay type: in vivo, Sprague-Dawley rats (female)
# Procedure: The composition containing soy leghemoglobin prepared according to the present invention was administered to iron-deficiency-anemia-induced animals, whereby the effectiveness of the composition containing soy leghemoglobin on alleviating anemia was evaluated. Specifically, after 2 weeks acclimation period, thirty 9-week old Sprague-Dawley rats (female) were divided into 3 groups of 10 rats per group, among which one group was fed with normal feed in an amount of 10% of body weight daily for one month (Group 1; control), and the remaining two groups were fed with iron-deficient feed in an amount of 10% of body weight daily for 6 weeks to induce iron-deficiency anemia (Group 2 and Group 3). After 6 weeks of feeding, it was confirmed that iron-deficiency anemia was induced in the individual rat belonging to Group 2 and Group 3. Then, one of the anemia-induced groups was orally administered once a day with saline alone (Group 2), and the other anemia-induced group was orally administered once a day with solution containing soy leghemoglobin (0.1 mg Fe/500 μl solution, Group 3). The administration continued for 5 weeks. During 5 weeks of administration to Group 2 and Group 3, Group 1 was continuously fed with normal feed, and Group 2 and Group 3 were fed with iron-deficient feed. […] After 5 weeks of administration, blood was collected, and whether anemia was alleviated was evaluated.
# [1] = iron-deficient feed, oral once a day, 0.1 mg Fe/500 μl solution, 5 weeks, blood collected after 5 weeks
molecule,measurement,setting,value
B1,Alleviation of iron-deficiency anemia (conclusion),"anemia-induced rats, 5 weeks oral administration",effective at alleviating iron-deficiency anemia
same,Weight of rats on 5 weeks after administration,"iron-deficient feed, oral once a day, 0.1 mg Fe/500 μl solution, 5 weeks, anemia-induced female Sprague-Dawley rats",369.3 ± 1.1 g
same,Blood test Hematocrit,[1],31.8 ± 1.9%
same,Blood test Hemoglobin content,[1],14.2 ± 0.4 g/dL
